Data reported in patent publication US20250043019A1 (Janssen / Centocor, published 2025).
Changes are numbered by the printed parent chain. Numbers in names are those of the source.

T1: human CD20 on the cell surface (human, UniProt P11836 1-297)
T1 construct: whole, on cells; On B-lymphoma lines, primary B cells, K562 CD20 or HEK293 transfectants; also called MS4A1; B-lymphocyte antigen CD20
T1 sequence (looked up): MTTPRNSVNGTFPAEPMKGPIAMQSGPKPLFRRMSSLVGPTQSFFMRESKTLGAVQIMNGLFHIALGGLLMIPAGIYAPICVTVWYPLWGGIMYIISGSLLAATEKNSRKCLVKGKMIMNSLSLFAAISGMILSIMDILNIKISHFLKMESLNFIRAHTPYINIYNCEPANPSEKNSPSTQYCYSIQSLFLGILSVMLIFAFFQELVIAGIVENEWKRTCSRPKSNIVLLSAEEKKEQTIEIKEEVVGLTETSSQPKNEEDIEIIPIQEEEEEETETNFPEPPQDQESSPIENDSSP

T2: cynomolgus monkey CD20 on B cells (cynomolgus monkey, UniProt M4ZHZ6 1-297)
T2 construct: whole, on cells
T2 sequence: T1 sequence (looked up) with S25P, F31L, T51A, A157V, K217R, N226S, I227V, T239V

T3: human CD79b and CD20 co-expressed on the surface of B-lymphoma cell lines or primary B cells (human, UniProt P11836 1-297)
T3 sequence 1: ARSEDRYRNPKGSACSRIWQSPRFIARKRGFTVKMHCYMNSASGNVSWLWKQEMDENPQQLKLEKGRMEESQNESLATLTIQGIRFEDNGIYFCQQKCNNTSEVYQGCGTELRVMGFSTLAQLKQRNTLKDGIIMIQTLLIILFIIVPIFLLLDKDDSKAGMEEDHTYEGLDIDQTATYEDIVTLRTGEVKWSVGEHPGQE
T3 sequence 2: T1 sequence (looked up)

T4: recombinant extracellular domain of human CD79b, long isoform (human, UniProt P40259 29-159)
T4 construct: also called hu CD79b long
T4 sequence: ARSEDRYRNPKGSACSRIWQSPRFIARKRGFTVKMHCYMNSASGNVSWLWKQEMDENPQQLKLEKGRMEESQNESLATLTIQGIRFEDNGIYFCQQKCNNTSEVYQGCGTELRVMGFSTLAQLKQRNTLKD

T5: recombinant extracellular domain of human CD79b, short isoform (human, UniProt P40259 29-159)
T5 chain: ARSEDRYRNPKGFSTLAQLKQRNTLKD

B1: C20B648 anti-CD20 binder (antibody, V domains shown)
VH: QVQLVQSGAEVKKPGSSVKVSCKASGYTFSSYNMHWVRQAPGQGLEWMGAIYPGAGDTSYAQKFQGRVTITADESTSTAYMELSSLRSEDTAVYYCARSNYYGSSGWYFDVWGKGTTVTVSS
VL: EIVLTQSPATLSLSPGERATLSCRASLSVSSMHWYQQKPGQAPRLLIYATSNLASGIPARFSGSGSGTDFTLTISSLEPEDFAVYYCQQWIFNPPTFGGGTKVEIK
B2: C923B74 CD79bxCD20xCD3 trispecific antibody (other)
heavy: QVQLQQSGPGLVKPSQTLSLTCAISGDSVSSNSATWNWIRQSPSRGLEWLGRTYYRSKWYNDYTVSVKSRITINPDTSKNQFSLQLNSVTPEDTAVYYCTRVDIAFDYWGQGTLVTVSSASTKGPSVFPLAPSSKSTSGGTAALGCLVKDYFPEPVTVSWNSGALTSGVHTFPAVLQSSGLYSLSSVVTVPSSSLGTQTYICNVNHKPSNTKVDKKVEPKSCDKTHTCPPCPAPEAAGGPSVFLFPPKPKDTLMISRTPEVTCVVVSVSHEDPEVKFNWYVDGVEVHNAKTKPREEQYNSTYRVVSVLTVLHQDWLNGKEYKCKVSNKALPAPIEKTISKAKGQPREPQVYTLPPSREEMTKNQVSLSCAVKGFYPSDIAVEWESNGQPENNYKTTPPVLDSDGSFFLVSKLTVDKSRWQQGNVFSCSVMHEALHNRFTQKSLSLSPGK
light: QTVVTQPPSVSEAPRQRVTISCSGSSSNIGNHGVNWYQQLPGKAPKLLIYNDDLLPSGVSDRFSGSTSGTSGSLAISGLQSEDEADYYCAAWDDSLNGVVFGGGTKLTVLGQPKAAPSVTLFPPSSEELQANKATLVCLISDFYPGAVTVAWKADSSPVKAGVETTTPSKQSNNKYAASSYLSLTPEQWKSHRSYSCQVTHEGSTVEKTVAPTECS
chain: EIVLTQSPATLSASPGERVTLSCSASSSVSYMNWYQQKPGQAPRRWIYDSSKLASGVPARFSGSGSGRDYTLTISSLEPEDFAVYYCQQWSRNPPTFGGGTKVEIKGGSEGKSSGSGSESKSTGGSQVQLVQSGAEVKKPGSSVKVSCKASGYTFTRSTMHWVKQAPGQGLEWIGYINPSSAYTNYNQKFQGRVTLTADKSTSTAYMELSSLRSEDTAVYYCASPQVHYDYAGFPYWGQGTLVTVSSEPKSSDKTHTCPPCPAPEAAGGPSVFLFPPKPKDTLMISRTPEVTCVVVSVSHEDPEVKFNWYVDGVEVHNAKTKPREEQYNSTYRVVSVLTVLHQDWLNGKEYKCKVSNKALPAPIEKTISKAKGQPREPQVYTLPPSREEMTKNQVSLWCLVKGFYPSDIAVEWESNGQPENNYKTTPPVLDSDGSFFLYSKLTVDKSRWQQGNVFSCSVMHEALHNHYTQKSLSLSPGKGGSEGKSSGSGSESKSTGGSAIQLTQSPSSLSASVGDRVTITCRASSSVSYIHWFQQKPGKAPKPLIYATSNLASGVPSRFSGSGSGTDFTLTISSLQPEDFATYYCQQWTSNPPTFGQGTKLEIKGGSEGKSSGSGSESKSTGGSQVQLVQSGAEVKKPGSSVKVSCKASGYTFTSYNMHWVRQAPGQGLEWMGAIYPGNGDTSYAQKFQGRVTITADKSTSTAYMELSSLRSEDTAVYYCARSTYYGGDWYFNVWGQGTLVTVSS
notes: Trispecific IgG1; also called CD9B330-N31S / CD3B2030-N106A-scFv-LH-C20B22

Columns and labels:
[1] = target: T1, human CD20 on the cell surface; assay: flow cytometry, human B cells
[2] = target: T2, cynomolgus monkey CD20 on B cells; assay: flow cytometry, cynomolgus B cells
[3] = target: T3, human CD79b and CD20 co-expressed on …; assay: cell-based or functional assay
[4] = target: T6, cynomolgus monkey CD79b antigen (cynomolgus monkey); assay: SPR Biacore 8k, cyno CD79b injected up to 3000 nM
T6 construct: also called cyno CD79b; CD9W1.001
Summary of the method: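 Antibodies captured on anti-human Fc C1 chip, CD79b extracellular domain injected in HBSP+ at 25 °C; association 2 or 3 min, dissociation 30 min. Double-referenced sensorgrams fitted to a 1:1 Langmuir model for on-rate, off-rate and affinity.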

[5] = target: T4, recombinant extracellular domain of …; assay: SPR Biacore 8k, antibody captured by anti-Fc, 25 C
Procedure: (§1) General Protocol for SPR Affinity Assessment: Affinity assessment of the bispecific trispecific constructs against human CD79b were measure using recombinantly expressed extracellular domain of CD79b short and long isoforms (CD9W7.001 and CD9W8.001, respectively) by Surface Plasmon Resonance (SPR) using a Biacore 8k SPR system (Biacore) at 25° C. in HBSP+ buffer. Cross-reactivity of the same antibody panel was also assessed against cyno and mouse antigens (CD9W1.001 and CD9W105.001, respectively). Briefly, a C1 sensor chip was immobilized with anti-human Fc (target immobilization levels of >400 RU) using vendor recommended amino coupling protocol. […] The association and dissociation phases were measured for 2 or 3 minutes and 30 minutes, respectively.
(§2) The raw binding sensorgrams were processed using Biacore Insight software (Biacore) by double-referencing and the processed sensorgrams were analyzed for cross-reactivity and fitted to a 1:1 Langmuir model to obtain on-rates, off-rates and affinities.

[6] = target: T5, recombinant extracellular domain of …; assay: SPR Biacore 8k, antibody captured by anti-Fc, 25 C
Procedure: as §1, §2

[7] = target: T3, human CD79b and CD20 co-expressed on …; assay: cell-based or functional assay; remark: listed apart in the source
[8] = target: T3, human CD79b and CD20 co-expressed on …; assay: cell-based or functional assay; remark: listed apart in the source
[9] = target: T3, human CD79b and CD20 co-expressed on …; assay: cell-based or functional assay; remark: listed apart in the source
[10] = target: T3, human CD79b and CD20 co-expressed on …; assay: cell-based or functional assay; remark: listed apart in the source
[11] = target: T3, human CD79b and CD20 co-expressed on …; assay: flow cytometry, Carnaval cells (CD79b+ CD20+), 1 h 37 C
Procedure: (§3) All cells were washed with BD stain buffer (BD Biosciences; Cat #554657), centrifuged at 1200 RPM for 3 minutes, with supernatant discarded. Cells were then stained for 20 minutes at 4° C. with BD stain buffer containing AlexaFluor 647 labeled anti-human IgG secondary antibody (Jackson Immuno; Cat #109-606-098) at a 1:200 dilution along with Aqua Fixable Live/Dead stain (Invitrogen; Cat #L34957) at a 1:400 dilution. All cells were washed with BD stain buffer (BD Biosciences; Cat #554657), centrifuged at 1200 RPM for 3 mins, with supernatant discarded. Cells were analyzed using Intellicyt (Sartorius) flow cytometer and mean fluorescent intensity (MFI) was generated using Forcyt software (Sartorius). MFI was graphed and EC50 values generated using GraphPad PRISM v.8. Dose response curves were generated by transforming the x axis values using the formula […]. Data was then graphed using non-linear regression curve fit analysis “log(agonist) vs. response-variable slope (four parameter)”.

[12] = target: T3, human CD79b and CD20 co-expressed on …; assay: cell-based or functional assay; remark: listed apart in the source
[13] = target: T3, human CD79b and CD20 co-expressed on …; assay: flow cytometry, HBL-1 cells (CD79b+ CD20+), 1 h 37 C
Procedure: as §3

[14] = target: T3, human CD79b and CD20 co-expressed on …; assay: flow cytometry, OCI-LY10 cells (CD79b+ CD20+), 1 h 37 C
Procedure: as §3

Row | Binder | binding result [1] | binding result [2] | IC50, CARNAVAL killing (Incucyte) [3] | Kd [4] | Kd [5] | Kd [6] | IC50, CARNAVAL killing, 72 h (FACS) [7] | IC50, HBL-1 killing, 72 h (FACS) [7] | IC50, OCI-LY10 killing, 72 h (FACS) [7] | IC50, Daudi killing (Incucyte) [8] | IC50, T-cell killing of HBL-1 (Incucyte) [9] | Cmax (maximum cytotoxicity), donor 1 [10] | Cmax (maximum cytotoxicity), donor 2 [10] | Cmax (maximum cytotoxicity), donor 3 [10] | EC50, autologous B-cell depletion, donor 1 [10] | EC50, autologous B-cell depletion, donor 2 [10] | EC50 [11] | IC50, T-cell killing of OCI-Ly10 (Incucyte) [12] | EC50 [13] | EC50 [14]
1 | B1 | binds | binds |  |  |  |  |  |  |  |  |  |  |  |  |  |  |  |  |  | 
2 | B2 |  |  | 0.741 nM | > 3000 nM | 0.023 nM | 0.39 nM | 0.35 nM | 2.42 nM | 24.2 nM | 0.1 nM | 0.346 nM | 34% | 66% | 40% | 78 nM | 23 nM | 23 nM | 25.6 nM | 52 nM | 66 nM
